Data taken from patent US6641809.

Legend:
CD28 receptor (human) [1] = biological target: CD28 receptor (human) (UniProt P10747); experiment: cell-based or functional assay
CD28 receptor (human) [2] = biological target: CD28 receptor (human) (UniProt P10747); experiment: adhesion of T51 cells to CD28+ CHO cells, mAb 9.3 at 10 µg/ml plus EDTA
CD28 receptor (human) [3] = biological target: CD28 receptor (human) (UniProt P10747); experiment: inhibition of adhesion of PM lymphoblastoid cells to CD28+ CHO monolayers
CD28 receptor (human) [4] = biological target: CD28 receptor (human) (UniProt P10747); experiment: adhesion of T51 cells to CD28+ CHO cells, mAb 9.3 at 10 µg/ml without EDTA
CD28 receptor (human) [5] = biological target: CD28 receptor (human) (UniProt P10747); experiment: adhesion of B7-transfected COS cells to CD28+ CHO cells, EDTA omitted
B7 antigen (human) [6] = biological target: B7 antigen (human) (UniProt P33681); experiment: flow cytometry, direct staining of Namalwa cells (BL, negative for CD28 adhesion; presence of B7 not shown)
B7 antigen (human), sequence (P33681 35-288): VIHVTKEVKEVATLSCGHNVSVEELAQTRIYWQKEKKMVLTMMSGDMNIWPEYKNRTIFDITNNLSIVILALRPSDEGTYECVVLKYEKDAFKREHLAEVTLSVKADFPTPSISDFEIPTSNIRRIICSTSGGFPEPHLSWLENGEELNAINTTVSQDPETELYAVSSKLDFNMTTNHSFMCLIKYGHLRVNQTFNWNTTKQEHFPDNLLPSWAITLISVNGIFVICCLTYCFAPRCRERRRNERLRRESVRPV

B7 antigen (human) [7] = biological target: B7 antigen (human) (UniProt P33681); experiment: flow cytometry, Namalwa cells (negative for CD28 adhesion); (- cold) minus (+ cold)
B7 antigen (human) [8] = biological target: B7 antigen (human) (UniProt P33681); experiment: flow cytometry, direct staining of 1A2 cells (B-LCL, negative for CD28 adhesion; presence of B7 not shown)
B7 antigen (human) [9] = biological target: B7 antigen (human) (UniProt P33681); experiment: cell-based or functional assay
B7 antigen (human) [10] = biological target: B7 antigen (human) (UniProt P33681); experiment: flow cytometry, T51 cells preincubated with unlabeled BB-1
B7 antigen (human) [11] = biological target: B7 antigen (human) (UniProt P33681); experiment: adhesion of T51 cells to CD28+ CHO cells, screen of a mAb panel
B7 antigen (human) [12] = biological target: B7 antigen (human) (UniProt P33681); experiment: flow cytometry, HSB2 cells preincubated with unlabeled BB-1
B7 antigen (human) [13] = biological target: B7 antigen (human) (UniProt P33681); experiment: flow cytometry, Daudi cells; (- cold) minus (+ cold)
B7 antigen (human) [14] = biological target: B7 antigen (human) (UniProt P33681); experiment: flow cytometry, 5E1 cells; (- cold) minus (+ cold)
B7 antigen (human) [15] = biological target: B7 antigen (human) (UniProt P33681); experiment: flow cytometry, CEM cells preincubated with unlabeled BB-1
B7 antigen (human) [16] = biological target: B7 antigen (human) (UniProt P33681); experiment: flow cytometry, Raji cells preincubated with unlabeled BB-1
B7 antigen (human) [17] = biological target: B7 antigen (human) (UniProt P33681); experiment: flow cytometry, T51 cells; (- cold) minus (+ cold)
B7 antigen (human) [18] = biological target: B7 antigen (human) (UniProt P33681); experiment: flow cytometry, direct staining of Raji cells (BL, positive for CD28 adhesion)
B7 antigen (human) [19] = biological target: B7 antigen (human) (UniProt P33681); experiment: flow cytometry, direct staining of Jijoye cells (BL, positive for CD28 adhesion)
B7 antigen (human) [20] = biological target: B7 antigen (human) (UniProt P33681); experiment: flow cytometry, Daudi cells preincubated with unlabeled BB-1
B7 antigen (human) [21] = biological target: B7 antigen (human) (UniProt P33681); experiment: flow cytometry, direct staining of Daudi cells (BL, positive for CD28 adhesion)
B7 antigen (human) [22] = biological target: B7 antigen (human) (UniProt P33681); experiment: flow cytometry, direct staining of T51 cells (B-LCL, positive for CD28 adhesion)
B7 antigen (human) [23] = biological target: B7 antigen (human) (UniProt P33681); experiment: flow cytometry, direct staining of 5E1 cells (B-LCL, positive for CD28 adhesion)
B7 antigen (human) [24] = biological target: B7 antigen (human) (UniProt P33681); experiment: adhesion of Jijoye cells to CD28+ CHO cells in 10 mM EDTA, BB-1 below 1 µg/ml
B7 antigen (human) [25] = biological target: B7 antigen (human) (UniProt P33681); experiment: flow cytometry, Jijoye cells; (- cold) minus (+ cold)
B7 antigen (human) [26] = biological target: B7 antigen (human) (UniProt P33681); experiment: flow cytometry, direct staining of HL60 cells (AML, negative for CD28 adhesion; presence of B7 not shown)
B7 antigen (human) [27] = biological target: B7 antigen (human) (UniProt P33681); experiment: flow cytometry, direct staining of HSB2 cells (T-ALL, negative for CD28 adhesion; presence of B7 not shown)
B7 antigen (human) [28] = biological target: B7 antigen (human) (UniProt P33681); experiment: flow cytometry, HL60 cells preincubated with unlabeled BB-1
B7 antigen (human) [29] = biological target: B7 antigen (human) (UniProt P33681); experiment: flow cytometry, direct staining of THP-1 cells (AML, negative for CD28 adhesion; presence of B7 not shown)
B7 antigen (human) [30] = biological target: B7 antigen (human) (UniProt P33681); experiment: flow cytometry, THP-1 cells preincubated with unlabeled BB-1
B7 antigen (human) [31] = biological target: B7 antigen (human) (UniProt P33681); experiment: flow cytometry, Jijoye cells preincubated with unlabeled BB-1
B7 antigen (human) [32] = biological target: B7 antigen (human) (UniProt P33681); experiment: flow cytometry, 5E1 cells preincubated with unlabeled BB-1
B7 antigen (human) [33] = biological target: B7 antigen (human) (UniProt P33681); experiment: flow cytometry, 1A2 cells preincubated with unlabeled BB-1
B7 antigen (human) [34] = biological target: B7 antigen (human) (UniProt P33681); experiment: flow cytometry, Raji cells; (- cold) minus (+ cold)

Substance: B7Ig fusion protein (from UniProt P33681 35-215; P01857 99-330) (Fc fusion)
- [3H]-T incorporation, PBL, + Anti-CD3, B7Ig (immob.), Exp. 1 (CD28 receptor (human) [1]): 174000 cpm
- [3H]-T incorporation, PBL, - Anti-CD3, B7Ig (immob.), Exp. 1 (CD28 receptor (human) [1]): 100 cpm

Substance: Monoclonal antibody (mAb) 9.3 (anti-CD28)
- [3H]-T incorporation, PBL, + Anti-CD3, mAb 9.3 (immob.), Exp. 1 (CD28 receptor (human) [1]): 137000 cpm
- [3H]-T incorporation, PBL, + Anti-CD3, mAb 9.3 (soln.), Exp. 1 (CD28 receptor (human) [1]): 156000 cpm
- [3H]-T incorporation, PBL, + Anti-CD3, mAb 9.3 (soln.), Exp. 2 (CD28 receptor (human) [1]): 75800 cpm
- [3H]-T incorporation, PBL, - Anti-CD3, mAb 9.3 (immob.), Exp. 1 (CD28 receptor (human) [1]): 100 cpm
- [3H]-T incorporation, PBL, - Anti-CD3, mAb 9.3 (soln.), Exp. 1 (CD28 receptor (human) [1]): 300 cpm
- [3H]-T incorporation, PBL, - Anti-CD3, mAb 9.3 (soln.), Exp. 2 (CD28 receptor (human) [1]): 400 cpm
- percent reduction of adhesion (CD28 receptor (human) [2]): 93%
- IC50 (CD28 receptor (human) [3]): 10 nM
- percent reduction of adhesion (CD28 receptor (human) [4]): 62%
- percent of adhesion blocked (CD28 receptor (human) [5]): 40%

Substance: mAb 9.3 (Fab fragments)
- [3H]-T incorporation, PHA blasts stimulated with B7+ CHO (40:1), with 9.3 Fab at 10 µg/ml (CD28 receptor (human) [1]): 132000 cpm

Substance: mAb BB-1 (anti-B7) (antibody)
- mean fluorescence (linear units), - COLD (B7 antigen (human) [6]): 3.8 linear units
- SPECIFIC BINDING (mean fluorescence, linear units) (B7 antigen (human) [7]): 1.6 linear units
- mean fluorescence (linear units), - COLD (B7 antigen (human) [8]): 4.5 linear units
- [3H]-T incorporation, PHA blasts stimulated with B7+ CHO (40:1), with BB-1 at 10 µg/ml (B7 antigen (human) [9]): 98300 cpm
- mean fluorescence (linear units), + COLD (B7 antigen (human) [10]): 3 linear units
- percent of CD28-mediated adhesion blocked (B7 antigen (human) [11]): > 30%
- mean fluorescence (linear units), + COLD (B7 antigen (human) [12]): 2.3 linear units
- SPECIFIC BINDING (mean fluorescence, linear units) (B7 antigen (human) [13]): 3.6 linear units
- SPECIFIC BINDING (mean fluorescence, linear units) (B7 antigen (human) [14]): 10.6 linear units
- mean fluorescence (linear units), + COLD (B7 antigen (human) [15]): 1.9 linear units
- mean fluorescence (linear units), + COLD (B7 antigen (human) [16]): 2.8 linear units
- SPECIFIC BINDING (mean fluorescence, linear units) (B7 antigen (human) [17]): 13.4 linear units
- mean fluorescence (linear units), - COLD (B7 antigen (human) [18]): 7.1 linear units
- mean fluorescence (linear units), - COLD (B7 antigen (human) [19]): 17.8 linear units
- mean fluorescence (linear units), + COLD (B7 antigen (human) [20]): 2.8 linear units
- mean fluorescence (linear units), - COLD (B7 antigen (human) [21]): 6.4 linear units
- mean fluorescence (linear units), - COLD (B7 antigen (human) [22]): 16.4 linear units
- mean fluorescence (linear units), - COLD (B7 antigen (human) [23]): 13 linear units
- percent of adhesion blocked (B7 antigen (human) [24]): 60%
- SPECIFIC BINDING (mean fluorescence, linear units) (B7 antigen (human) [25]): 15 linear units
- mean fluorescence (linear units), - COLD (B7 antigen (human) [26]): 3.1 linear units
- mean fluorescence (linear units), - COLD (B7 antigen (human) [27]): 2.3 linear units
- mean fluorescence (linear units), + COLD (B7 antigen (human) [28]): 3.1 linear units
- mean fluorescence (linear units), - COLD (B7 antigen (human) [29]): 3.1 linear units
- mean fluorescence (linear units), + COLD (B7 antigen (human) [30]): 3 linear units
- mean fluorescence (linear units), + COLD (B7 antigen (human) [31]): 2.8 linear units
- mean fluorescence (linear units), + COLD (B7 antigen (human) [32]): 2.4 linear units
- mean fluorescence (linear units), + COLD (B7 antigen (human) [33]): 4.3 linear units
- SPECIFIC BINDING (mean fluorescence, linear units) (B7 antigen (human) [34]): 4.3 linear units
